Measurements from patent EP4717706A1.

B1: AVR25c with G392E, S433G, A485V, L493M, N496D (receptor)
chain: MGSAGESDQITLPKHEAQLKVYVLLVPPKGEASTYDWQLITHPRDYSGEMEGEHSQILKLSNLTPGLYEYRAVVEGQNAHSEEYVNVTVEPGPRKNRPPIAIVSPQFQEISLPTTSAVIDGSQGTDDDKIVQYHWEELKGPLREEKISEDTPILKLSNLVPGNYTFRLTVVDTDGVTDSTTADMTVDKAVDHHHHHH
B2: AVR25c with F(Y)379N (receptor)
chain: MGSAGESDQITLPKHEAQLKVYVLLVPPKGEASTYDWQLITHPRDYSGEMEGEHSQILKLSNLTPGLYENRAVVEGQNAHSEGYVNVTVEPGPRKNRPPIAIVSPQFQEISLPTTSAVIDGSQSTDDDKIVQYHWEELKGPLREEKISEDTPILKLSNLVPGNYTFRLTVVDTDGATDSTTADLTVNKAVDHHHHHH
B3: AVR25c with Q318R, E362D, E378G (receptor)
chain: MGSAGESDRITLPKHEAQLKVYVLLVPPKGEASTYDWQLITHPRDYSGEMEGDHSQILKLSNLTPGLYGYRAVVEGQNAHSEGYVNVTVEPGPRKNRPPIAIVSPQFQEISLPTTSAVIDGSQSTDDDKIVQYHWEELKGPLREEKISEDTPILKLSNLVPGNYTFRLTVVDTDGATDSTTADLTVNKAVDHHHHHH
B4: AVR25c with G314D, E399K, E445K (receptor)
chain: MGSADESDQITLPKHEAQLKVYVLLVPPKGEASTYDWQLITHPRDYSGEMEGEHSQILKLSNLTPGLYEYRAVVEGQNAHSEGYVNVTVKPGPRKNRPPIAIVSPQFQEISLPTTSAVIDGSQSTDDDKIVQYHWKELKGPLREEKISEDTPILKLSNLVPGNYTFRLTVVDTDGATDSTTADLTVNKAVDHHHHHH
B5: AVR25c with Q347R, T486A, D500G (receptor)
chain: MGSAGESDQITLPKHEAQLKVYVLLVPPKGEASTYDWRLITHPRDYSGEMEGEHSQILKLSNLTPGLYEYRAVVEGQNAHSEGYVNVTVEPGPRKNRPPIAIVSPQFQEISLPTTSAVIDGSQSTDDDKIVQYHWEELKGPLREEKISEDTPILKLSNLVPGNYTFRLTVVDTDGAADSTTADLTVNKAVGHHHHHH
B6: AVR25c with G314D, V499I (receptor)
chain: MGSADESDQITLPKHEAQLKVYVLLVPPKGEASTYDWQLITHPRDYSGEMEGEHSQILKLSNLTPGLYEYRAVVEGQNAHSEGYVNVTVEPGPRKNRPPIAIVSPQFQEISLPTTSAVIDGSQSTDDDKIVQYHWEELKGPLREEKISEDTPILKLSNLVPGNYTFRLTVVDTDGATDSTTADLTVNKAIDHHHHHH
B7: AVR25c with V(D)317G, T478I (receptor)
chain: MGSAGESGQITLPKHEAQLKVYVLLVPPKGEASTYDWQLITHPRDYSGEMEGEHSQILKLSNLTPGLYEYRAVVEGQNAHSEGYVNVTVEPGPRKNRPPIAIVSPQFQEISLPTTSAVIDGSQSTDDDKIVQYHWEELKGPLREEKISEDTPILKLSNLVPGNYTFRLIVVDTDGATDSTTADLTVNKAVDHHHHHH
B8: AVR25c with T434S (receptor)
chain: MGSAGESDQITLPKHEAQLKVYVLLVPPKGEASTYDWQLITHPRDYSGEMEGEHSQILKLSNLTPGLYEYRAVVEGQNAHSEGYVNVTVEPGPRKNRPPIAIVSPQFQEISLPTTSAVIDGSQSSDDDKIVQYHWEELKGPLREEKISEDTPILKLSNLVPGNYTFRLTVVDTDGATDSTTADLTVNKAVDHHHHHH
B9: AVR25c with P322A, T350A, L421P (receptor)
chain: MGSAGESDQITLAKHEAQLKVYVLLVPPKGEASTYDWQLIAHPRDYSGEMEGEHSQILKLSNLTPGLYEYRAVVEGQNAHSEGYVNVTVEPGPRKNRPPIAIVSPQFQEISPPTTSAVIDGSQSTDDDKIVQYHWEELKGPLREEKISEDTPILKLSNLVPGNYTFRLTVVDTDGATDSTTADLTVNKAVDHHHHHH
B10: AVR25c with H363P, K497E (receptor)
chain: MGSAGESDQITLPKHEAQLKVYVLLVPPKGEASTYDWQLITHPRDYSGEMEGEPSQILKLSNLTPGLYEYRAVVEGQNAHSEGYVNVTVEPGPRKNRPPIAIVSPQFQEISLPTTSAVIDGSQSTDDDKIVQYHWEELKGPLREEKISEDTPILKLSNLVPGNYTFRLTVVDTDGATDSTTADLTVNEAVDHHHHHH
B11: AVR25c with E325V, D437V (receptor)
chain: MGSAGESDQITLPKHVAQLKVYVLLVPPKGEASTYDWQLITHPRDYSGEMEGEHSQILKLSNLTPGLYEYRAVVEGQNAHSEGYVNVTVEPGPRKNRPPIAIVSPQFQEISLPTTSAVIDGSQSTDDVKIVQYHWEELKGPLREEKISEDTPILKLSNLVPGNYTFRLTVVDTDGATDSTTADLTVNKAVDHHHHHH
B12: AVR25c with Q415R, S457R (receptor)
chain: MGSAGESDQITLPKHEAQLKVYVLLVPPKGEASTYDWQLITHPRDYSGEMEGEHSQILKLSNLTPGLYEYRAVVEGQNAHSEGYVNVTVEPGPRKNRPPIAIVSPRFQEISLPTTSAVIDGSQSTDDDKIVQYHWEELKGPLREEKIREDTPILKLSNLVPGNYTFRLTVVDTDGATDSTTADLTVNKAVDHHHHHH
B13: AVR25c with R406H, F416L (receptor)
chain: MGSAGESDQITLPKHEAQLKVYVLLVPPKGEASTYDWQLITHPRDYSGEMEGEHSQILKLSNLTPGLYEYRAVVEGQNAHSEGYVNVTVEPGPRKNHPPIAIVSPQLQEISLPTTSAVIDGSQSTDDDKIVQYHWEELKGPLREEKISEDTPILKLSNLVPGNYTFRLTVVDTDGATDSTTADLTVNKAVDHHHHHH
B14: AVR25c with E378G, V398A (receptor)
chain: MGSAGESDQITLPKHEAQLKVYVLLVPPKGEASTYDWQLITHPRDYSGEMEGEHSQILKLSNLTPGLYGYRAVVEGQNAHSEGYVNVTAEPGPRKNRPPIAIVSPQFQEISLPTTSAVIDGSQSTDDDKIVQYHWEELKGPLREEKISEDTPILKLSNLVPGNYTFRLTVVDTDGATDSTTADLTVNKAVDHHHHHH
B15: AVR21 with V412A (receptor)
chain: MGSAGESDQITLPKHEAQLNVYVLLVPPKGEASTYDWQLITHPRDYSGEMEGEHSQILKLSNLTPGLYEYRAVVEGQNAHSEGYVNVTVEPEPRKNRPPIAIASPQFQEISLPTTSTVIDGSQSTDDDKIVQYHWEELKGPLREEKISEDTAILKLSQLVPGNYTFRLTVVDTDGATDSTTADLTVNKAVDHHHHHH
B16: AVR21 with E(V)335A (receptor)
chain: MGSAGESDQITLPKHEAQLNVYVLLAPPKGEASTYDWQLITHPRDYSGEMEGEHSQILKLSNLTPGLYEYRAVVEGQNAHSEGYVNVTVEPEPRKNRPPIAIVSPQFQEISLPTTSTVIDGSQSTDDDKIVQYHWEELKGPLREEKISEDTAILKLSQLVPGNYTFRLTVVDTDGATDSTTADLTVNKAVDHHHHHH
B17: AVR21 with V332A (receptor)
chain: MGSAGESDQITLPKHEAQLNVYALLVPPKGEASTYDWQLITHPRDYSGEMEGEHSQILKLSNLTPGLYEYRAVVEGQNAHSEGYVNVTVEPEPRKNRPPIAIVSPQFQEISLPTTSTVIDGSQSTDDDKIVQYHWEELKGPLREEKISEDTAILKLSQLVPGNYTFRLTVVDTDGATDSTTADLTVNKAVDHHHHHH
B18: AVR21 with T426A (receptor)
chain: MGSAGESDQITLPKHEAQLNVYVLLVPPKGEASTYDWQLITHPRDYSGEMEGEHSQILKLSNLTPGLYEYRAVVEGQNAHSEGYVNVTVEPEPRKNRPPIAIVSPQFQEISLPTTSAVIDGSQSTDDDKIVQYHWEELKGPLREEKISEDTAILKLSQLVPGNYTFRLTVVDTDGATDSTTADLTVNKAVDHHHHHH
B19: AVR21 with N329K, E401G (receptor)
chain: MGSAGESDQITLPKHEAQLKVYVLLVPPKGEASTYDWQLITHPRDYSGEMEGEHSQILKLSNLTPGLYEYRAVVEGQNAHSEGYVNVTVEPGPRKNRPPIAIVSPQFQEISLPTTSTVIDGSQSTDDDKIVQYHWEELKGPLREEKISEDTAILKLSQLVPGNYTFRLTVVDTDGATDSTTADLTVNKAVDHHHHHH
B20: AVR21 with D500N (receptor)
chain: MGSAGESDQITLPKHEAQLNVYVLLVPPKGEASTYDWQLITHPRDYSGEMEGEHSQILKLSNLTPGLYEYRAVVEGQNAHSEGYVNVTVEPEPRKNRPPIAIVSPQFQEISLPTTSTVIDGSQSTDDDKIVQYHWEELKGPLREEKISEDTAILKLSQLVPGNYTFRLTVVDTDGATDSTTADLTVNKAVNHHHHHH
B21: AVR21 with E(V)335A, V394I (receptor)
chain: MGSAGESDQITLPKHEAQLNVYVLLAPPKGEASTYDWQLITHPRDYSGEMEGEHSQILKLSNLTPGLYEYRAVVEGQNAHSEGYINVTVEPEPRKNRPPIAIVSPQFQEISLPTTSTVIDGSQSTDDDKIVQYHWEELKGPLREEKISEDTAILKLSQLVPGNYTFRLTVVDTDGATDSTTADLTVNKAVDHHHHHH
B22: AVR21 with L328P, V394A (receptor)
chain: MGSAGESDQITLPKHEAQPNVYVLLVPPKGEASTYDWQLITHPRDYSGEMEGEHSQILKLSNLTPGLYEYRAVVEGQNAHSEGYANVTVEPEPRKNRPPIAIVSPQFQEISLPTTSTVIDGSQSTDDDKIVQYHWEELKGPLREEKISEDTAILKLSQLVPGNYTFRLTVVDTDGATDSTTADLTVNKAVDHHHHHH
B23: AVR21 with N329S, K368R, V412A (receptor)
chain: MGSAGESDQITLPKHEAQLSVYVLLVPPKGEASTYDWQLITHPRDYSGEMEGEHSQILRLSNLTPGLYEYRAVVEGQNAHSEGYVNVTVEPEPRKNRPPIAIASPQFQEISLPTTSTVIDGSQSTDDDKIVQYHWEELKGPLREEKISEDTAILKLSQLVPGNYTFRLTVVDTDGATDSTTADLTVNKAVDHHHHHH

target: VLP2 (virus-like particles, capsid protein particles of AAV serotype 2) (AAV serotype 2 (AAV2)) (UniProt P03135); test: ELISA on immobilised VLP2 (culture supernatant); A450 after 1:1 1 M NaOH, 15 min, 30°C divided by A450 untreated
UniProt P03135, sequence (P03135 whole entry): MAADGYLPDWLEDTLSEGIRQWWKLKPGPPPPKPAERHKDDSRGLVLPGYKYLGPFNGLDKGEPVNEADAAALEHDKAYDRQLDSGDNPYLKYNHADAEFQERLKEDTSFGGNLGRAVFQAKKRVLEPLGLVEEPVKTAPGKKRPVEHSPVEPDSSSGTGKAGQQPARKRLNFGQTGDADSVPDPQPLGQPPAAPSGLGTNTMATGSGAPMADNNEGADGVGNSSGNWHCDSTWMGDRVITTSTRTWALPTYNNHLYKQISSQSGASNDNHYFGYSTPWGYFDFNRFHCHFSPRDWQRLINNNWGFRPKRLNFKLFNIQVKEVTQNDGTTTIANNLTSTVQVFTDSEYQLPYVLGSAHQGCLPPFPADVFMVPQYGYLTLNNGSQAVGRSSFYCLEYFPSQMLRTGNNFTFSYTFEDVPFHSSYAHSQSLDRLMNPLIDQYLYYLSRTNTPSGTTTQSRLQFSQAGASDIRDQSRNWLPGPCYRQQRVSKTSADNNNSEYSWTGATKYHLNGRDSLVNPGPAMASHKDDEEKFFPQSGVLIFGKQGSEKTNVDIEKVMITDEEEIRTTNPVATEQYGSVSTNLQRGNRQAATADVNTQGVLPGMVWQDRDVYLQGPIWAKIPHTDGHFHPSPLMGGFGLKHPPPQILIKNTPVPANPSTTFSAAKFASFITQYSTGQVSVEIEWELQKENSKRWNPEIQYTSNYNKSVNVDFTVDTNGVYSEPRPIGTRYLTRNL

Row | Binder | Remaining activity [%]
1 | B1 | 61
2 | B2 | 55.1
3 | B3 | 66.1
4 | B4 | 62.5
5 | B5 | 72.8
6 | B6 | 79.1
7 | B7 | 82
8 | B8 | 77.3
9 | B9 | 49.6
10 | B10 | 69.6
11 | B11 | 76.7
12 | B12 | 55.1
13 | B13 | 41.9
14 | B14 | 67.5

target: VLP2 (virus-like particles, capsid protein particles of AAV serotype 2) (AAV serotype 2 (AAV2)) (UniProt P03135); test: ELISA on immobilised VLP2 (culture supernatant, anti-His detection); A450 after 1:1 0.5 M NaOH, 30 min, 30°C divided by A450 untreated

Row | Binder | Remaining activity [%]
15 | B15 | 32.5
16 | B16 | 35.8
17 | B17 | 57.6
18 | B18 | 43.5
19 | B19 | 43.1
20 | B20 | 39.3
21 | B21 | 37.3
22 | B22 | 40.5
23 | B23 | 37.1
